Values of other authors as cited in publication PMC4776130.
Like-named read-outs stand apart in the source and are kept apart here.

Experiments:
His15 [1] = biological target: T1, His15 (UniProt position 33, AAMKRHGLDNY); assay: NMR
His15 [2] = biological target: T1, His15
Asp83 [3] = biological target: Asp83 (UniProt position 104, VKGEWDKIKKD); assay: NMR; conditions: HdeA dimer (remains dimeric from pH 6 down to pH 3)
Asp47 = Asp47 (UniProt position 68, KDKPEDAVLDV); assay: NMR; conditions: HdeA dimer (remains dimeric from pH 6 down to pH 3)
Asp51 = Asp51 (UniProt position 72, EDAVLDVQGIA); assay: NMR; conditions: HdeA dimer (remains dimeric from pH 6 down to pH 3)
Asp20 = Asp20 (UniProt position 41, SWTCEDFLAVD); assay: NMR; conditions: HdeA dimer (remains dimeric from pH 6 down to pH 3)
Glu81 = Glu81 (UniProt position 102, DKVKGEWDKIK); assay: NMR; conditions: HdeA dimer (remains dimeric from pH 6 down to pH 3)
Glu26 = Glu26 (UniProt position 47, FLAVDESFQPT); assay: NMR; conditions: HdeA dimer (remains dimeric from pH 6 down to pH 3)
Asp69 = Asp69 (UniProt position 90, QACTQDKQANF); assay: NMR; conditions: HdeA dimer (remains dimeric from pH 6 down to pH 3)
Glu19 = Glu19 (UniProt position 40, NSWTCEDFLAV); assay: NMR; conditions: HdeA dimer (remains dimeric from pH 6 down to pH 3)
Asp25 = Asp25 (UniProt position 46, DFLAVDESFQP); assay: NMR; conditions: HdeA dimer (remains dimeric from pH 6 down to pH 3)
Glu46 = Glu46 (UniProt position 67, NKDKPEDAVLD); assay: NMR; conditions: HdeA dimer (remains dimeric from pH 6 down to pH 3)
Asp76 = Asp76 (UniProt position 97, QANFKDKVKGE); assay: NMR; conditions: HdeA dimer (remains dimeric from pH 6 down to pH 3)
Asp43 = Asp43 (UniProt position 64, ALNNKDKPEDA); assay: NMR; conditions: HdeA dimer (remains dimeric from pH 6 down to pH 3)
Asp19 = Asp19 (UniProt position 101, LIKAIDGDTVK); conditions: folded SNase Delta+PHS
Glu10 = Glu10 (UniProt position 92, KKLHKEPATLI); conditions: folded SNase Delta+PHS
Glu57 = Glu57 (UniProt position 139, EKYGPEASAFT); conditions: folded SNase Delta+PHS
Glu67 = Glu67 (UniProt position 149, TKKMVENAKKI); conditions: folded SNase Delta+PHS
Asp40 = Asp40 (UniProt position 122, RLLLVDTPETK); conditions: folded SNase Delta+PHS
Glu73 = Glu73 (UniProt position 155, NAKKIEVEFDK); conditions: folded SNase Delta+PHS
Asp83 [4] = biological target: Asp83 (UniProt position 165, KGQRTDKYGRG); conditions: folded SNase Delta+PHS
Glu43 = Glu43 (UniProt position 125, LVDTPETKHPK); conditions: folded SNase Delta+PHS
Glu122 = Glu122 (UniProt position 204, GNNTHEQLLRK); conditions: folded SNase Delta+PHS
Glu75 = Glu75 (UniProt position 157, KKIEVEFDKGQ); conditions: folded SNase Delta+PHS
His121 = His121 (UniProt position 203, KGNNTHEQLLR)
Asp95 = Asp95 (UniProt position 177, AYIYADGKMVN); conditions: folded SNase Delta+PHS
Glu52 = Glu52 (UniProt position 134, PKKFNEKYGPE); conditions: folded SNase Delta+PHS
Glu101 = Glu101 (UniProt position 183, GKMVNEALVRQ); conditions: folded SNase Delta+PHS
His8 = His8 (UniProt position 90, STKKLHKEPAT)
Asp77 = Asp77 (UniProt position 159, IEVEFDKGQRT); conditions: folded SNase Delta+PHS
Asp21 = Asp21 (UniProt position 103, KAIDGDTVKLM); conditions: folded SNase Delta+PHS
Glu129 = Glu129 (UniProt position 211, LLRKAEAQAKK); conditions: folded SNase Delta+PHS
Glu135 = Glu135 (UniProt position 217, AQAKKEKLNIW); conditions: folded SNase Delta+PHS

Substance: Hen egg-white lysozyme (HEWL) (Gallus gallus)
- pKa (His15 [1]): 5.5 ± 0.2
- pKa (His15 [2]): 5.68–5.74

Substance: Acid stress chaperone HdeA (Escherichia coli)
- pKa (Asp83 [3]): 3.97
- pKa (Asp47): 4.14
- pKa (Asp51): 3.83
- pKa (Asp20): 3.66
- pKa (Glu81): 4.23
- pKa (Glu26): 4.57
- pKa (Asp69): 3.74
- pKa (Glu19): 4.38
- pKa (Asp25): 3.71
- pKa (Glu46): 4.07
- pKa (Asp76): 3.75
- pKa (Asp43): 3.87

Substance: Staphylococcal nuclease (SNase), Delta+PHS variant (Staphylococcus aureus; G50F;V51N;P117G;H124L;S128A;del44-49)
- pKa (Asp19): 2.21
- pKa (Glu10): 2.82
- pKa (Glu57): 3.49
- pKa (Glu67): 3.76
- pKa (Asp40): 3.87
- pKa (Glu73): 3.31
- pKa (Asp83 [4]): <2.2
- pKa (Glu43): 4.32
- pKa (Glu122): 3.89
- pKa (Glu75): 3.26
- pKa (His121): 5.25
- pKa (Asp95): 2.16
- pKa (Glu52): 3.93
- pKa (Glu101): 3.81
- pKa (His8): 6.50
- pKa (Asp77): <2.2
- pKa (Asp21): 6.54
- pKa (Glu129): 3.75
- pKa (Glu135): 3.76
